Test results reported in article PMC3897949, “Dimeric structure of p300/CBP associated factor” (BMC Structural Biology, 2014).
Residue numbers refer to the chain shown, from its start. In names and notes the source's numbering stands.

B1: PCAF HAT domain (amino acids 493-658) L512A/M513A/V516A (domain or fragment, human, UniProt Q92831 493-658, looked up)
chain: VIEFHVVGNSLNQKPNKKIAAWLAGLQNVFSHQLPRMPKEYITRLVFDPKHKTLALIKDGRVIGGICFRMFPSQGFTEIVFCAVTSNEQVKGYGTHLMNHLKEYHIKHDILNFLTYADEYAIGYFKKQGFSKEIKIPKTKYVGYIKDYEGATLMGCELNPRIPYTE
notes: p300/CBP associated factor (PCAF, KAT2B), human, HAT domain, residues 493-658; also called LMV512AAA
B2: PCAF HAT domain (amino acids 493-658) F539A (domain or fragment, human, UniProt Q92831 493-658, looked up)
chain: B1 chain with A20L, A21M, A24V, F47A
notes: p300/CBP associated factor (PCAF, KAT2B), human, HAT domain, residues 493-658
B3: PCAF HAT domain (amino acids 493-658) L512D/V516D/F539A (domain or fragment, human, UniProt Q92831 493-658, looked up)
chain: B1 chain with A20D, A21M, A24D, F47A
notes: p300/CBP associated factor (PCAF, KAT2B), human, HAT domain, residues 493-658; also called LVF512DDA
B4: PCAF HAT domain (amino acids 493-658) L512D/V516D (domain or fragment, human, UniProt Q92831 493-658, looked up)
chain: B1 chain with A20D, A21M, A24D
notes: p300/CBP associated factor (PCAF, KAT2B), human, HAT domain, residues 493-658; also called LV512DD

Molecular target: the molecule itself
Assay: cross-linking; 1 mg/ml protein in 50 mM HEPES pH7.5, 50 mM sodium sulfate; DSS at 5X molar concentration, 1 h at room temperature; SDS-PAGE, coomassie blue

Binding result, binds:
B1, B2, B3, B4
